Starred links: 1 amine or outer side, 2 acyl side, 3 side chain; linkers in the order of their positions; H or OH if unused. Non-standard residues stand in square brackets, D forms with d. *: point of attachment. Trp(6-F) = N[C@@H](Cc1c[nH]c2cc(F)ccc12)C(=O)O; Trp(7-F) = N[C@@H](Cc1c[nH]c2c(F)cccc12)C(=O)O; Trp(7-Me) = Cc1cccc2c(C[C@H](N)C(=O)O)c[nH]c12; C20 diacid = O=C(O)CCCCCCCCCCCCCCCCCCC(=O)*; d(γGlu) = O=C(O)[C@@H](CCC(=O)[*:2])N[*:1]; C18 diacid = O=C(O)CCCCCCCCCCCCCCCCC(=O)*; γGlu = O=C(O)[C@H](CCC(=O)[*:2])N[*:1]; Palmitoyl = CCCCCCCCCCCCCCCC(=O)*; 3Pal = N[C@@H](Cc1cccnc1)C(=O)O; Nle = CCCC[C@H](N)C(=O)O; AEEA = NCCOCCOCC(=O)O; Aib = CC(C)(N)C(=O)O; βAla = NCCC(=O)O; Sar = CNCC(=O)O
B1: Peptide 136 (peptide)
peptide: {C18 diacid}-[γGlu][AEEA][AEEA][AEEA][AEEA]GAH[Trp(7-F)]AV[dA]HL[Nle]-NH2
SMILES: CCCC[C@H](NC(=O)[C@H](CC(C)C)NC(=O)[C@H](Cc1c[nH]cn1)NC(=O)[C@@H](C)NC(=O)[C@@H](NC(=O)[C@H](C)NC(=O)[C@H](Cc1c[nH]c2c(F)cccc12)NC(=O)[C@H](Cc1c[nH]cn1)NC(=O)[C@H](C)NC(=O)CNC(=O)COCCOCCNC(=O)COCCOCCNC(=O)COCCOCCNC(=O)COCCOCCNC(=O)CC[C@H](NC(=O)CCCCCCCCCCCCCCCCC(=O)O)C(=O)O)C(C)C)C(N)=O
B2: Peptide 137 (peptide)
peptide: {C18 diacid}-[γGlu][AEEA][AEEA][AEEA][AEEA]GRH[Trp(7-F)]AV[dA]HL[Nle][Sar]-NH2
SMILES: CCCC[C@H](NC(=O)[C@H](CC(C)C)NC(=O)[C@H](Cc1c[nH]cn1)NC(=O)[C@@H](C)NC(=O)[C@@H](NC(=O)[C@H](C)NC(=O)[C@H](Cc1c[nH]c2c(F)cccc12)NC(=O)[C@H](Cc1c[nH]cn1)NC(=O)[C@H](CCCNC(=N)N)NC(=O)CNC(=O)COCCOCCNC(=O)COCCOCCNC(=O)COCCOCCNC(=O)COCCOCCNC(=O)CC[C@H](NC(=O)CCCCCCCCCCCCCCCCC(=O)O)C(=O)O)C(C)C)C(=O)N(C)CC(N)=O
B3: Peptide 142 (peptide)
peptide: {C18 diacid}-[γGlu][AEEA][AEEA]GNHWAV[βAla]HL[Nle]-NH2
SMILES: CCCC[C@H](NC(=O)[C@H](CC(C)C)NC(=O)[C@H](Cc1c[nH]cn1)NC(=O)CCNC(=O)[C@@H](NC(=O)[C@H](C)NC(=O)[C@H](Cc1c[nH]c2ccccc12)NC(=O)[C@H](Cc1c[nH]cn1)NC(=O)[C@H](CC(N)=O)NC(=O)CNC(=O)COCCOCCNC(=O)COCCOCCNC(=O)CC[C@H](NC(=O)CCCCCCCCCCCCCCCCC(=O)O)C(=O)O)C(C)C)C(N)=O
B4: Peptide 141 (peptide)
peptide: {C18 diacid}-[γGlu][AEEA][AEEA]RRHWAV[dA]HL[Nle]-NH2
SMILES: CCCC[C@H](NC(=O)[C@H](CC(C)C)NC(=O)[C@H](Cc1c[nH]cn1)NC(=O)[C@@H](C)NC(=O)[C@@H](NC(=O)[C@H](C)NC(=O)[C@H](Cc1c[nH]c2ccccc12)NC(=O)[C@H](Cc1c[nH]cn1)NC(=O)[C@H](CCCNC(=N)N)NC(=O)[C@H](CCCNC(=N)N)NC(=O)COCCOCCNC(=O)COCCOCCNC(=O)CC[C@H](NC(=O)CCCCCCCCCCCCCCCCC(=O)O)C(=O)O)C(C)C)C(N)=O
B5: Peptide 130 (peptide)
peptide: {C18 diacid}-[γGlu][AEEA][AEEA]GNHRAV[dA]HL[Nle][Sar]-NH2
SMILES: CCCC[C@H](NC(=O)[C@H](CC(C)C)NC(=O)[C@H](Cc1c[nH]cn1)NC(=O)[C@@H](C)NC(=O)[C@@H](NC(=O)[C@H](C)NC(=O)[C@H](CCCNC(=N)N)NC(=O)[C@H](Cc1c[nH]cn1)NC(=O)[C@H](CC(N)=O)NC(=O)CNC(=O)COCCOCCNC(=O)COCCOCCNC(=O)CC[C@H](NC(=O)CCCCCCCCCCCCCCCCC(=O)O)C(=O)O)C(C)C)C(=O)N(C)CC(N)=O
B6: Peptide 144 (peptide)
peptide: {C18 diacid}-[γGlu][AEEA][AEEA]FN[3Pal]WAV[βAla]HL[Nle]-NH2
SMILES: CCCC[C@H](NC(=O)[C@H](CC(C)C)NC(=O)[C@H](Cc1c[nH]cn1)NC(=O)CCNC(=O)[C@@H](NC(=O)[C@H](C)NC(=O)[C@H](Cc1c[nH]c2ccccc12)NC(=O)[C@H](Cc1cccnc1)NC(=O)[C@H](CC(N)=O)NC(=O)[C@H](Cc1ccccc1)NC(=O)COCCOCCNC(=O)COCCOCCNC(=O)CC[C@H](NC(=O)CCCCCCCCCCCCCCCCC(=O)O)C(=O)O)C(C)C)C(N)=O
B7: Peptide 143 (peptide)
peptide: {C18 diacid}-[γGlu][AEEA][AEEA][dF]NHWAV[dA]HL[Nle]-NH2
SMILES: CCCC[C@H](NC(=O)[C@H](CC(C)C)NC(=O)[C@H](Cc1c[nH]cn1)NC(=O)[C@@H](C)NC(=O)[C@@H](NC(=O)[C@H](C)NC(=O)[C@H](Cc1c[nH]c2ccccc12)NC(=O)[C@H](Cc1c[nH]cn1)NC(=O)[C@H](CC(N)=O)NC(=O)[C@@H](Cc1ccccc1)NC(=O)COCCOCCNC(=O)COCCOCCNC(=O)CC[C@H](NC(=O)CCCCCCCCCCCCCCCCC(=O)O)C(=O)O)C(C)C)C(N)=O
B8: Peptide 145 (peptide)
peptide: {C18 diacid}-[γGlu][AEEA][AEEA]RNHWAV[dA]HL[Nle]-NH2
SMILES: CCCC[C@H](NC(=O)[C@H](CC(C)C)NC(=O)[C@H](Cc1c[nH]cn1)NC(=O)[C@@H](C)NC(=O)[C@@H](NC(=O)[C@H](C)NC(=O)[C@H](Cc1c[nH]c2ccccc12)NC(=O)[C@H](Cc1c[nH]cn1)NC(=O)[C@H](CC(N)=O)NC(=O)[C@H](CCCNC(=N)N)NC(=O)COCCOCCNC(=O)COCCOCCNC(=O)CC[C@H](NC(=O)CCCCCCCCCCCCCCCCC(=O)O)C(=O)O)C(C)C)C(N)=O
B9: Peptide 140 (peptide)
peptide: {C18 diacid}-[γGlu][AEEA][AEEA]FNHWAV[βAla]HL[Nle]-NH2
SMILES: CCCC[C@H](NC(=O)[C@H](CC(C)C)NC(=O)[C@H](Cc1c[nH]cn1)NC(=O)CCNC(=O)[C@@H](NC(=O)[C@H](C)NC(=O)[C@H](Cc1c[nH]c2ccccc12)NC(=O)[C@H](Cc1c[nH]cn1)NC(=O)[C@H](CC(N)=O)NC(=O)[C@H](Cc1ccccc1)NC(=O)COCCOCCNC(=O)COCCOCCNC(=O)CC[C@H](NC(=O)CCCCCCCCCCCCCCCCC(=O)O)C(=O)O)C(C)C)C(N)=O
B10: Peptide 132 (peptide)
peptide: {C20 diacid}-[γGlu][AEEA][AEEA][AEEA][AEEA]GRHWAV[dA]HL[Nle]-NH2
SMILES: CCCC[C@H](NC(=O)[C@H](CC(C)C)NC(=O)[C@H](Cc1c[nH]cn1)NC(=O)[C@@H](C)NC(=O)[C@@H](NC(=O)[C@H](C)NC(=O)[C@H](Cc1c[nH]c2ccccc12)NC(=O)[C@H](Cc1c[nH]cn1)NC(=O)[C@H](CCCNC(=N)N)NC(=O)CNC(=O)COCCOCCNC(=O)COCCOCCNC(=O)COCCOCCNC(=O)COCCOCCNC(=O)CC[C@H](NC(=O)CCCCCCCCCCCCCCCCCCC(=O)O)C(=O)O)C(C)C)C(N)=O
B11: Peptide 138 (peptide)
peptide: {C20 diacid}-[γGlu][AEEA][AEEA]GNH[Trp(7-F)]AV[dA]HL[Nle][Sar]-NH2
SMILES: CCCC[C@H](NC(=O)[C@H](CC(C)C)NC(=O)[C@H](Cc1c[nH]cn1)NC(=O)[C@@H](C)NC(=O)[C@@H](NC(=O)[C@H](C)NC(=O)[C@H](Cc1c[nH]c2c(F)cccc12)NC(=O)[C@H](Cc1c[nH]cn1)NC(=O)[C@H](CC(N)=O)NC(=O)CNC(=O)COCCOCCNC(=O)COCCOCCNC(=O)CC[C@H](NC(=O)CCCCCCCCCCCCCCCCCCC(=O)O)C(=O)O)C(C)C)C(=O)N(C)CC(N)=O
B12: Peptide 11 (peptide)
peptide: Palmitoyl-[d(γGlu)][AEEA][AEEA]GNHW[Aib]V[dA]HL[Nle]-NH2
SMILES: CCCCCCCCCCCCCCCC(=O)N[C@H](CCC(=O)NCCOCCOCC(=O)NCCOCCOCC(=O)NCC(=O)N[C@@H](CC(N)=O)C(=O)N[C@@H](Cc1c[nH]cn1)C(=O)N[C@@H](Cc1c[nH]c2ccccc12)C(=O)NC(C)(C)C(=O)N[C@H](C(=O)N[C@H](C)C(=O)N[C@@H](Cc1c[nH]cn1)C(=O)N[C@@H](CC(C)C)C(=O)N[C@@H](CCCC)C(N)=O)C(C)C)C(=O)O
B13: Peptide 131 (peptide)
peptide: {C20 diacid}-[γGlu][AEEA][AEEA]GNHWAV[dA]HL[Nle][Sar]-NH2
SMILES: CCCC[C@H](NC(=O)[C@H](CC(C)C)NC(=O)[C@H](Cc1c[nH]cn1)NC(=O)[C@@H](C)NC(=O)[C@@H](NC(=O)[C@H](C)NC(=O)[C@H](Cc1c[nH]c2ccccc12)NC(=O)[C@H](Cc1c[nH]cn1)NC(=O)[C@H](CC(N)=O)NC(=O)CNC(=O)COCCOCCNC(=O)COCCOCCNC(=O)CC[C@H](NC(=O)CCCCCCCCCCCCCCCCCCC(=O)O)C(=O)O)C(C)C)C(=O)N(C)CC(N)=O
B14: Peptide 133 (peptide)
peptide: {C18 diacid}-[γGlu][AEEA][AEEA][AEEA][AEEA]GNH[Trp(6-F)]AV[dA]HL[Nle][Sar]-NH2
SMILES: CCCC[C@H](NC(=O)[C@H](CC(C)C)NC(=O)[C@H](Cc1c[nH]cn1)NC(=O)[C@@H](C)NC(=O)[C@@H](NC(=O)[C@H](C)NC(=O)[C@H](Cc1c[nH]c2cc(F)ccc12)NC(=O)[C@H](Cc1c[nH]cn1)NC(=O)[C@H](CC(N)=O)NC(=O)CNC(=O)COCCOCCNC(=O)COCCOCCNC(=O)COCCOCCNC(=O)COCCOCCNC(=O)CC[C@H](NC(=O)CCCCCCCCCCCCCCCCC(=O)O)C(=O)O)C(C)C)C(=O)N(C)CC(N)=O
B15: Peptide 134 (peptide)
peptide: {C18 diacid}-[γGlu][AEEA][AEEA]GNH[Trp(7-Me)]AV[dA]HL[Nle]R-NH2
SMILES: CCCC[C@H](NC(=O)[C@H](CC(C)C)NC(=O)[C@H](Cc1c[nH]cn1)NC(=O)[C@@H](C)NC(=O)[C@@H](NC(=O)[C@H](C)NC(=O)[C@H](Cc1c[nH]c2c(C)cccc12)NC(=O)[C@H](Cc1c[nH]cn1)NC(=O)[C@H](CC(N)=O)NC(=O)CNC(=O)COCCOCCNC(=O)COCCOCCNC(=O)CC[C@H](NC(=O)CCCCCCCCCCCCCCCCC(=O)O)C(=O)O)C(C)C)C(=O)N[C@@H](CCCNC(=N)N)C(N)=O
B16: Peptide 139 (peptide)
peptide: {C18 diacid}-[γGlu][AEEA][AEEA]GDHW[dA]V[dA]HL[Nle]-NH2
SMILES: CCCC[C@H](NC(=O)[C@H](CC(C)C)NC(=O)[C@H](Cc1c[nH]cn1)NC(=O)[C@@H](C)NC(=O)[C@@H](NC(=O)[C@@H](C)NC(=O)[C@H](Cc1c[nH]c2ccccc12)NC(=O)[C@H](Cc1c[nH]cn1)NC(=O)[C@H](CC(=O)O)NC(=O)CNC(=O)COCCOCCNC(=O)COCCOCCNC(=O)CC[C@H](NC(=O)CCCCCCCCCCCCCCCCC(=O)O)C(=O)O)C(C)C)C(N)=O

These binders were tested against human GRP receptor (human, UniProt P30550 1-384) (assay: cell-based or functional assay).
human GRP receptor, sequence (P30550 whole entry): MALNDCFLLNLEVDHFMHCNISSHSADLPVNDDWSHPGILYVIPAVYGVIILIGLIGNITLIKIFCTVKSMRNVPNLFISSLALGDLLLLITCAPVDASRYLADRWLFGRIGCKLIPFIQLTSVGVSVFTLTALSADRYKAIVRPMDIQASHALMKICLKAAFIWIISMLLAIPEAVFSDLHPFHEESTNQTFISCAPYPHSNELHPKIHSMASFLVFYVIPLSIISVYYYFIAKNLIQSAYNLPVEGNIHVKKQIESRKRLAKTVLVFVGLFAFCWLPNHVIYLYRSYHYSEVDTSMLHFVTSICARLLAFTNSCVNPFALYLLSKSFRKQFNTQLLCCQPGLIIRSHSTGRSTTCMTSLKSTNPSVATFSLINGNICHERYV

hIP1 GRPR EC50 [nM]	Binder
40.5	B1
488	B2
3.55	B3
7.72	B4
> 10000	B5
5.99	B6
10.7	B7
5.2	B8
4.8	B9
4.18	B10
81.8	B11
3.2	B12
54.2	B13
600	B14
> 10000	B15
> 10000	B16

Reference: US20260176319A1 (KALLYOPE, published 2026)
